From a protein production outcome set (Wang et al. 2014)

Assay: label from the status in PepcDB records

Sequence	protein production
MIPFTIEYIFVLIGAFLLSIILTPIIRVISLKVGAVDKPNARRINKVPMPSSGGLAIFLSFVVTTLFFMPMAASRHFIEVSYFHYILPVIIGGLVVTTTGFIDDIFELRPRYKMLGIIIAAIIIWKFTHFRFDSFKIPIGGPLLEFGPILTFFLTVLWIISITNAINLIDGLDGLVSGVSIISLATMAVVSYFFLPKIDFFLTLTIVILIASIVGFFPYNYHPAIIYLGDAGALFIGFMIGVLSLQGLKNSTAVAVITPVIILGVPILDTAVAIVRRKLSGKKISEADKMHLHHRLLSMGFTHRGAVLVVYGIAIIFSLIALLLNVSSRIGGIFLLLALLLAMEIFIEGLNIWGENRTPLFNLLKFIGNSDYRQSVIAKYSDKHQK	failed
MIPIHPVGGSQTPASSTAAAGTGDAVTSVFLQPGRISLPASPPLSLYVHVPWCVRKCPYCDFNSHAEPEAGIPEDRFLAAIRQDLEAALPMVWGRRVHTIFIGGGTPSLLSARGLDTLLSDIRMLLPVDADAEITMEANPGTFEAERFRSYRASGVNRLSIGIQSFNDTHLQALGRIHSAAEARAAIDIARAHFDNINLDLMFALPGQTLAECEADVEAALSFGTSHVSLYHLTLEPNTYFAKHPPALPDDDTAFAMQDWIHARLAAAGYEHYEVSAYARPGKRCKHNLNYWQFGDYLGIGPGAHGKLSFPHRVIRDMRHKHPETYLRQAETAGGATVVQEQREVDAADLPFEFMLNALRLTDGFPVTLFQERTGLPLRGIERELDAAERRGLLVHDHATIRPTELGQRFLNDLQALFLADDEN	failed
MIPLMHDFEGETVLVVGGGSVGARKARTFATEASVVVLSPEFGDRTFADAEKVRAAPTPEDATDWVERTDPALVVAATDDSDLNGAFSTAAAEHGALVNRTDDHGDQSFGNIVVPATVRDDPVTLAIATGGRAPALSKHLRERFEDEFGNAGLMADLVGDLREDLRDRGVPPAKRRDAVRFVVRSREVWKALDSGRSKGEQVARDVIGELPGDQT	not failed
MIPLVSIIVPMYNVEPFIEECIDSLLRQTLSDIEIILVNDGTPDRSGEIAEDYAKRDARIRVIHQANGGLSSARNTGIKAARGTYIGFVDGDDYVSSAMFQRLTEEAEQNQLDIVGCGFYKQSSDRRTYVPPQLEANRVLTKPEMTEQLKHAHETRFIWYVWRYLYRRELFERANLLFDEDIRFAEDSPFNLSAFREAERVKMLDEGLYIYRENPNSLTEIPYKPAMDEHLQKQYQAKIAFYNHYGLAGACKEDLNVYICRHQLPMLLANACASPNSPKDIKKKIRQILSYDMVRQAVRHTPFQHEKLLRGERLVLALCKWRLTFLIKLFFEQRGTMKGSAKQALEHHHHHH	failed
MIPMEELKVKKITNGTVIDHIDAGKALMVFKVLNVPKETSVMIAINVPSKKKGKKDILKIEGIELKKEDVDKISLISPDVTINIIRNGKVVEKLKPQIPDEIEGTLKCTNPNCITNKEKVRGKFKIESKNPLKIRCYYCEKFLNEVIFE	not failed
MIPRVRAPELPQNYPWLNTEQPLSIKQLNGRVVILDFWTYCCINCLHVLPDLKYLEQKYKDSLTVIGVHSAKFDNEQETENIRQAILRYDIEHPVLVDKDFRVWQEYAVRAWPTLMVIDPKGYVIGYVSGEGNRDKLDQLITQVIQEHQGAINFQQLSLTLEKQRQPLITPLAFPGKVLATPSGLFVADSGHHRIVVSDFNGEILHLIGNGKSGLTDGNFQEAQFSAPQGMAFDMENQILYLADTENHALRRVDINQQTVETIAGTGEQSRNIQPHGGVGLETALNSPWDLVNIENSLYIAMAGVHQIWQMDLASGVIKTYAGTGVEACLDASLTESAFAQPSGITNNEQELYIADSEISSIRGVGLVEPQEVRTVCGSGGLFGFGDVDGQGEDVRLQHCLGVEYFQNYLWVADTYNHKIKSVSPHTGNCQTVLGDGLAGLQNGQGKNTRFFEPSGLSAIDSYLYISDTNNHVIRRVDLRTLEVTTMQFNGLCAPDVCIPNNFLEHHHHHH	failed
MIPVTSFRGKKVALFGLGGSGLVTARALVAGGAAVVAFDDNPDSVAKAQAEGIATADLHTIDWSSFSSFVLAPGVPLTHPKPHWSVDLAKAAGVEVIGDIELFIRERRVHAPDCPFIAITGTNGKSTTTALIAHILQSSGRDTQLGGNIGTAVLSLDPPKAQRFYVVECSSYQIDLAPTINPTAGILLNLTPDHLDRHGTMQHYADVKERLVAGSGTAIVGVDDSHSTLIADRIERAGVKVERISKRNVVSEGLYAEGSQILRAHGGTSSLLVDLDGIQTLRGSHNAQNAAAAIAACLAVGVSEEEIRAGLKSFPGLKHRMQPVGRRGNVTFVNDSKATNADAAAPALSSFDRIYWIAGGLPKAGGITSLSPLFPRIAKAYLIGEAAAEFAATLGEAVPYEISGTLDKAVQHAAADAEKDATAGNVVMLSPACASFDQYKNFEIRGDSFVAQVAALEGMTMLVHSGKGG	failed
MIPYVNEYDTPNCNTLAETAKKSIRTPESLGLDRCIQCGACTASCPAARFTDYSPRQIVKKVLENDRSVLESDMIWSCFYCYSCNMRCPRNNSPVTIVQVLRQMAINEGIGIGKLAYFLEIGECLAENGASKVPGAGVKNMERDLGERWIGIKRNLEPIRSELGLSPRDVRDTHGEVQAILESTGYFEREKWIKAGIQEKKLHGFLKADCSDEEKKNGDFCFESDREYTGQEAITV	failed
MIQEIASILVQPGREADFEAGVAQARPLFMRARGCHGVALHRSIEAPQRYTLVVDWETVDNHMVDFRQSADFQEWRKLVGECFAEPPQVHHEQKVL	not failed
MIQSSLYRALNKGFDYQILACKDFKESELAKEVISYFKPNTKAILFPEFRAKKNDDLRSFFEEFLQLLGGLREFYQALENKQETIIIAPISALLHPLPKKELLESFKITLLEKYNLKDLKDKLFYYGYEILDLVEVEGEASFRGDIVDIYAPNSKAYRLSFFDTECESIKEFDPITQMSLKEDLLEIEIPPTLFSLDESSYKDLKTKVEQSPLNSFSKDLTSFGLWFLGEKAQDLLIVYKSIISPRALEEIQELASLNELDCERFKFLKVLENAQGYEDLEIHAHALEGFIALHSNHKITLLAPNKTILDNAISALDAGNMECVIAPFVLNFKTPDGIFISLNSFERKKKRQKSKLALNELNPGEWVVHDDYGVGVFSQLVQHSVLGSKRDFLEIAYLGEDKLLLPVENLHLIARYVAQSDSVPAKDRLGKGSFLKLKAKVRTKLLEIASKIIELAAERNLILGKKMDVHLAELEVFKSHAGFEYTSDQEKAIAEISKDLSSHRVMDRLLSGDVGFGKTEVAMHAIFCAFLNGFQSALVVPTTLLAHQHFETLRARFENFGVKVARLDRYASEKNKLLKAVELGQVDALIGTHAILGAKFKNLGLVVVDEEHKFGVKQKEALKELSKSVHFLSMSATPIPRTLNMALSQIKGISSLKTPPTDRKPSRTFLKEKNDELLKEIIYRELRRNGQIFYIHNHIASILKVKTKLEDLIPKLKIAILHSQINANESEEIMLEFAKGNYQVLLCTSIVESGIHLPNANTIIIDNAQNFGLADLHQLRGRVGRGKKEGFCYFLIEDQKSLNEQALKRLLALEKNSYLGSGESVAYHDLEIRGGGNLLGQDQSGHIKNIGYALYTRMLEDAIYELSGGKKRLEKSVEIQLGVSAFLNPELIASDSLRLDLYRRLSLCENTDEVGQIHEEIEDRFGKIDDLSAQFLQIITLKILANQLGIIKLSNFNQNITITYSDEKKESLKAPSKDDNDILETLLKHLRAQISLKRR	failed
MIRGGRNNITSAPAFSKDAKKLLLCTANTVSVYSVATGLKITSLEDHTAPVTSVIVDPSSDETVSYCWTSSLDGKIRIWEFSAPKLLKIFDTHLPIHSLVMIPAQVSHSVIAYVSVEDYSSVSKDLFGQIRRYDLTQDPLHSGDTLKEMEEPKPIVLSPSGEFFGVCHNCSIHIWNVASEHLMPKETTLHHTELITVFAFHPNQRILAAGDVTGRVLIWKDNGIGEFTSVKTEDDTESCTTFNWHSAEVTVLNFSSDGALLYSGVKAGDFVVWELGTGKKQLLPKIGSPLLYFIFSSDSTLSSVICADNQIHLLKMPSMEILRTISGIKPPTPERHGFICYVKTRDICLTRTVSIDRSSGIAAFCTANHRVQLYNLLSDHDISEVQICDHHPDDDDQVRVLVTAVALSRNGSVMTTAEARFAASNFSEGIVSLKFWVFVPDSKTFSLSTVINQPHREAAITAIALNPARSMAVSISSAGDFKIWVCSSDKNLTPEDSNWICHGVGSYKRTPITAAVFSGDGSCLALAAKTVITIWHPLKNELLYVVGKANAPIMELSFTGGGFLIAASHGSTPHLSVWDLMTFCLSWSYRLYIEAIATEVDSPYFAVLTWLPESDRLVKSNEQIFRGKDGAILLFDGSGPKPVAIWTVMKARGGTLSFVEDGKKSQPLLAYVNRSHEYVLFDPYSDEKLETSAIDYEVFLAAISKKKKRSRKKALMSEKPWETMFCGSTLNFPPFPDLCASFFSSRMQKEVCERADRQPERHSS	failed
MIRILICFSLITASLLITSIFANSALLFTEFIHSLVDLIPIAFAFYALRIIDRIDSKYTYGLHRLEIVSSLFNIFTVVAGSVFSVYISTVELIEGSRGDFLLVLISSSIALSLSLVASTDKSEEGRVSGSKLHAIQDSLAYILAVISSLLIIIMKIYFIDPVSAYILNGVLVITSLSPLKFSYNILMEKSPIDTKSVETELQSIFPQVHHIHVWSICDHLNVATLHVRENPDLTLRELDKKREYAEKVLREKFGITHVTIQFEANNKKERLEKI	failed
MIRKLDKAEFQQATTLALEVYLQCGQDDFEDEGLESFKSFIFNDKLMNELCIYGAFEENKLIGIMGTKNEGKHISLFFIKKEFHRKGIGKQLFDYSQCDCPANEITVNSSTYAIRFYESLGFEKTNDRQQTNGISYTPMKLISNKLEHHHHHH	not failed
MIRKLMICIAVLVGFCPMAWGTVDDVPNPKTYDADNWVSDPDHILDSETKNKINDILQQLEDSLTIEVAVVALNSIGEEEPHEFAVTLFNLWGVGKAKDDNGLLILLTRDIRDITFKTGYGLEGVLPDAICKRIQMETMVPHLRENDWNTGMLEGVKAVAAVLYGSDYQAAPPEAWIKKFRRTTPSLVFIVFALMLILINWLVWKSAVHRMTPKDEGTEAALALLATRNPFTARTLLGLCWLVPVWPAMLGIACWYFGIQKQKTLRRSRTCPKCNRETLREIPLHELIKDTKRLTESERKETELKTAYIRIYRCSACSEEVKIRIPLEKDGYECCPSCGHMTLHKEEKYRTIIKATTSSEGLMEARHRCMYCDAEYMVGYTIPKINPSSRRSGGSGGGGGGSFGGGSSGGGGSSSRF	failed
MIRLNVFVRVNETNREKAIEAAKELTACSLKEEGCIAYDTFESSTRRDVFMICETWQNAEVLAAHEKTAHFAQYVGIIQELAEMKLEKFEF	not failed
MIRSIVCTQRLIHRIMYTSARKYFIQFAIVAFVLGFIPTLYFIHAASQLETQAVSSVEKQTRLQLEFSQHDLLRMLESTHQATQLLAKNDLLFTAVTTPSKEALSQLKTLWDVTLRSQAIFSSFRLLDRQGKEQLKAIYDGHQVTFVESAQTTDPFSQQIVAQYAQLTTPQVWATQVAMSADTPSGMLPTFRFVTGIEHQGQRQGFLVVTVKLQSLYQRLSFIYDQFDSPDILNSAGELLLSEHKPSGTRSTSSLHFSAQHPELWQKIQLNQQGFALSNQTWFSYIKVDLSSVLPDFKPLVLVLRINKAEIDKTYANARWALMSQAVTVLSLLSIIAAGFAAWNINHLKNSLDSKLARAAMDGMSAVVITDRQNRIIKVNNEFTRLSGYTFEDVKGKQPSIFASGLHKVEFYMQMWKALQDNGVWEGEVINKRKDGESITEILRIQSIRDEDNVIQFYVASFVDISHRKALENRLRELSEKDALTDLWNRRKFDQTISLECAKRRRYPDQAQSCLAIIDIDHFKRINDKFGHNEGDLVLRTVAKGIQDQLRESDFIARIGGEEFAIIFPYTSIEEAEQVLNRVRLHIASLHHQQVTLSGGVTDVCTSPDQSYKRADLALYESKTSGRNQISVLTAMEMHHFA	failed
MIRVASLIKAMSDTQLQIAQGASPLTGLPGNSAIEQEIKRRLNSGNAFGMIYADLNQFKAFNDTYGFQYGDSIIKLLGKILMQDSLKADDLAFVGHVGGDDFIILTTQNVTKTLGETILLSFQEQLSAMQGAQDLSLALAGLIIYPHTAWTPATLSERIAAVKREAKKAHCNYFLLRELEHHHHHH	failed
